Test results from patent US20230400471A1, “SYSTEMS, COMPOSITIONS AND METHODS OF DETERMINING VIABILITY OF EMBRYOS USING THE SAME” (BioIncept, LLC, priority 2020, published 2023).
Values joined by “and” are separate entries in the source; they are usually repeats but may differ in a detail not shown here. Identical values can stand only once. Like-named read-outs stand apart in the source and are kept apart here. One block for each molecule: values may come before it. Ends that are not written are not given here.

Tests used:
[1] = tested on: rabbit anti-PIF monoclonal antibody; test: PIF colorimetric ELISA using rabbit anti-PIF monoclonal antibody, epitope mapping with PIF peptides of various length; type: binding; settings: representative value of three repeats
Procedure: (§1) To study PIF peptide and its derivatives of different length for binding to rabbit anti-PIF monoclonal antibody and rabbit anti-PIF polyclonal antibody, PIF peptides of various lengths as listed in Table 2 was synthesized, reconstituted in PBS and two different concentrations were tested by respective colorimetric ELISA following standard protocol. The standards were run in duplicate and the samples were run in triplicate and repeated three times.

[2] = tested on: rabbit anti-PIF polyclonal antibody; test: PIF colorimetric ELISA using rabbit polyclonal antibody, epitope mapping with PIF peptides of various length; type: binding; settings: for % recovery by Rabbit Polyclonal Antibody: representative value of three repeats
Procedure: as §1

[3] = molecular target: T1, rabbit monoclonal anti-PIF antibody Clone #30; test: ELISA; Clone #30 via goat anti-rabbit; biotin-PIF tracer without unlabeled PIF
T1 chain 1: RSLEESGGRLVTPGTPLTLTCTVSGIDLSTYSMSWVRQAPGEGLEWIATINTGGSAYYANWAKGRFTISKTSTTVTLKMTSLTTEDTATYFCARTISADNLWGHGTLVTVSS
T1 chain 2: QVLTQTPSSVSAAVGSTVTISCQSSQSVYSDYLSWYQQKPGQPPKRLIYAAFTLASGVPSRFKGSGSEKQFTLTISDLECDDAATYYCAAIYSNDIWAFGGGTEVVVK

PIF = test: Surface plasmon resonance (SPR), captured Clone #30 with PIF as analyte; type: binding, human; settings: PIF 2-fold concentration series up to 10 μM, duplicate
Source text: (§2) The PIF-binding specificity of the rabbit monoclonal antibody Clone #30 described in Example 1 was quantitatively characterized by surface plasmon resonance (SPR). SPR is an optical technique for detecting the interaction of two different molecules in which one is mobile and one is fixed on a thin gold film. In SPR analysis, affinity-purified ligand polypeptides are immobilized on a sensor chip inserted into the flow chamber of an instrument, such as Biacore 3000 instrument (Biacore, Uppsala, Sweden). Addition of a second polypeptide, the flow-through analyte, to the chamber, results in binding to the immobilized polypeptide ligand, producing a small change in refractive index at the gold surface, which can be quantified with precision. Binding affinities can be obtained from the ratio of rate constants, yielding a straightforward characterization of protein-protein interaction.
(§3) In the work described here, purified rabbit monoclonal antibody Clone #30 was used as the ligand polypeptide and PIF in solution was used as the analyte to evaluate their binding affinity. To immobilize rabbit monoclonal antibody Clone #30 onto a chip, a sheep polyclonal anti-rabbit antibody was used. The sheep anti-rabbit antibody was amine coupled to a CM5 sensor chip using standard NHS/EDC activation. […]

scrambled PIF (SCR) = test: Surface plasmon resonance (SPR), captured Clone #30 with scrambled PIF as analyte; type: binding; settings: SCR 2-fold concentration series up to 10 μM, duplicate
Source text: as §2, §3

[4] = molecular target: T1, rabbit monoclonal anti-PIF antibody …; test: competitive ELISA; Clone #30 via goat anti-rabbit; competitor biotin-PIF tracer
[5] = molecular target: T1, rabbit monoclonal anti-PIF antibody …; test: as above
[6] = molecular target: T1, rabbit monoclonal anti-PIF antibody …; test: competitive microarray immunoassay; Clone #30 on goat anti-rabbit spots; competitor A647-sPIF tracer
[7] = molecular target: T2, preimplantation factor (PIF), full-length 15-amino acid peptide (human); test: SPR: Clone #30 captured (about 2000 RU) on sheep anti-rabbit antibody amine-coupled to a CM5 chip; PIF as analyte in a 2-fold series up to 10 µM; global 1:1 fit
[8] = molecular target: T2, preimplantation factor (PIF), …; test: as above; remark: listed apart in the source
[9] = molecular target: T2, preimplantation factor (PIF), …; test: SPR, Clone #30 captured on sheep anti-rabbit CM5 chip, PIF as analyte, global 1:1 fit

Molecule: P8-13: PIF peptide, amino acid locations 8-13 (S A N K P S) (SANKPS) [Clone P8-13]
% Recovery by Rabbit Monoclonal Antibody ([1]; spike concentration 100 ng/ml): 0% | % Recovery by Rabbit Monoclonal Antibody ([1]; spike concentration 200 ng/ml): 0% | % recovery by Rabbit Polyclonal Antibody ([2]; spike concentration 100 ng/ml): 0% | % recovery by Rabbit Polyclonal Antibody ([2]; spike concentration 200 ng/ml): 0%

Molecule: P1-13: PIF peptide, amino acid locations 1-13 (M V R I K P G S A N K P S) (MVRIKPGSANKPS) [Clone P1-13]
% Recovery by Rabbit Monoclonal Antibody ([1]; spike concentration 100 ng/ml): 0% | % Recovery by Rabbit Monoclonal Antibody ([1]; spike concentration 200 ng/ml): 0% | recovery by PIF colorimetric ELISA using rabbit polyclonal antibody ([2]; Table 3, spike concentration not given): about 40% | % recovery by Rabbit Polyclonal Antibody ([2]; spike concentration 100 ng/ml): 49.8% | % recovery by Rabbit Polyclonal Antibody ([2]; spike concentration 200 ng/ml): 31.1%

% Bound, tracer alone (0 pg/mL PIF) [3]: 96% | AvgNetRLU, tracer alone (0 pg/mL PIF) [3]: 2.28e+07 RLU | MeanValue (RLU), tracer alone (0 pg/mL PIF) [3]: 2.8e+07 RLU | Values (RLU), tracer alone (0 pg/mL PIF) [3]: 2.86e+07 RLU and 2.74e+07 RLU
Molecule: MVRIKPGSANKPSDD (not fully specified) [biotin labeled PIF]

Kd (PIF; SPR, 1:1 interaction model): ~15 nM | binding of scrambled PIF (SCR) to Clone #30 by SPR (scrambled PIF (SCR)): no binding was observed
B1: Clone #30: Rabbit monoclonal antibody against human PIF peptide; heavy chain SEQ ID NO: 2, light chain SEQ ID NO: 7 (antibody, listed as Homo sapiens)
heavy: METGLRWLLLVAVLKGVQCRSLEESGGRLVTPGTPLTLTCTVSGIDLSTYSMSWVRQAPGEGLEWIATINTGGSAYYANWAKGRFTISKTSTTVTLKMTSLTTEDTATYFCARTISADNLWGHGTLVTVSSGQPKAPSVFPLAPCCGDTPSSTVTLGCLVKGYLPEPVTVTWNSGTLTNGVRTFPSVRQSSGLYSLSSVVSVTSSSQPVTCNVAHPATNTKVDKTVAPSTCSKPTCPPPELLGGPSVFIFPPKPKDTLMISRTPEVTCVVVDVSQ
light: MDTRAPTQLLGLLLLWLPGATFAQVLTQTPSSVSAAVGSTVTISCQSSQSVYSDYLSWYQQKPGQPPKRLIYAAFTLASGVPSRFKGSGSEKQFTLTISDLECDDAATYYCAAIYSNDIWAFGGGTEVVVKGDPVAPTVLIFPPSADQVATGTVTIVCVANKYFPDVTVTWEVDGTTQTTGIENSKTPQNSADCTYNLSSTLTLTSTQYNSHKEYTCKVTQGTTSVVQSFNRGDC
binding of PIF to Clone #30 by SPR (PIF): significant and concentration dependent binding response

% Bound at 1 pg/mL [4]: 96.6% | % Bound at 10 pg/mL [4]: 93.6% | % Bound at 25 pg/mL [4]: 91.1% | % Bound at 250 pg/mL [4]: 81.4% | % Bound at 500 pg/mL [4]: 69.9% | AvgNetRLU at 1 pg/mL [4]: 2.3e+07 RLU | AvgNetRLU at 10 pg/mL [4]: 2.23e+07 RLU | AvgNetRLU at 25 pg/mL [4]: 2.16e+07 RLU | AvgNetRLU at 250 pg/mL [4]: 1.93e+07 RLU | AvgNetRLU at 500 pg/mL [4]: 1.66e+07 RLU | MeanValues (RLU) at 1 pg/mL [4]: 2.82e+07 RLU | MeanValues (RLU) at 10 pg/mL [4]: 2.74e+07 RLU | MeanValues (RLU) at 25 pg/mL [4]: 2.68e+07 RLU | MeanValues (RLU) at 250 pg/mL [4]: 2.45e+07 RLU | MeanValues (RLU) at 500 pg/mL [4]: 2.18e+07 RLU | Values (RLU) at 1 pg/mL [4]: 2.86e+07 RLU and 2.77e+07 RLU | Values (RLU) at 10 pg/mL [4]: 2.79e+07 RLU and 2.7e+07 RLU | Values (RLU) at 25 pg/mL [4]: 2.72e+07 RLU and 2.65e+07 RLU | Values (RLU) at 250 pg/mL [4]: 2.48e+07 RLU and 2.43e+07 RLU | Values (RLU) at 500 pg/mL [4]: 2.23e+07 RLU and 2.13e+07 RLU | % Bound at 1 pg/mL [5]: 93.7% | % Bound at 5 pg/mL [5]: 92.8% | % Bound at 10 pg/mL [5]: 91.7% | % Bound at 25 pg/mL [5]: 90% | % Bound at 50 pg/mL [5]: 87% | % Bound at 100 pg/mL [5]: 89.9% | % Bound at 250 pg/mL [5]: 77.3% | % Bound at 500 pg/mL [5]: 61.1% | % Bound at 1000 pg/mL [5]: 49.8% | % Bound at 2000 pg/mL [5]: 27% | AvgNetRLU at 1 pg/mL [5]: 2.23e+07 RLU | AvgNetRLU at 5 pg/mL [5]: 2.21e+07 RLU | AvgNetRLU at 10 pg/mL [5]: 2.18e+07 RLU | AvgNetRLU at 25 pg/mL [5]: 2.14e+07 RLU | AvgNetRLU at 50 pg/mL [5]: 2.07e+07 RLU | AvgNetRLU at 100 pg/mL [5]: 2.14e+07 RLU | AvgNetRLU at 250 pg/mL [5]: 1.84e+07 RLU | AvgNetRLU at 500 pg/mL [5]: 1.45e+07 RLU | AvgNetRLU at 1000 pg/mL [5]: 1.18e+07 RLU | AvgNetRLU at 2000 pg/mL [5]: 6.41e+06 RLU | MeanValue (RLU) at 1 pg/mL [5]: 2.75e+07 RLU | MeanValue (RLU) at 5 pg/mL [5]: 2.73e+07 RLU | MeanValue (RLU) at 10 pg/mL [5]: 2.7e+07 RLU | MeanValue (RLU) at 25 pg/mL [5]: 2.66e+07 RLU | MeanValue (RLU) at 50 pg/mL [5]: 2.59e+07 RLU | MeanValue (RLU) at 100 pg/mL [5]: 2.66e+07 RLU | MeanValue (RLU) at 250 pg/mL [5]: 2.36e+07 RLU | MeanValue (RLU) at 500 pg/mL [5]: 1.97e+07 RLU | MeanValue (RLU) at 1000 pg/mL [5]: 1.7e+07 RLU | MeanValue (RLU) at 2000 pg/mL [5]: 1.16e+07 RLU | Values (RLU) at 1 pg/mL [5]: 2.77e+07 RLU and 2.73e+07 RLU | Values (RLU) at 5 pg/mL [5]: 2.75e+07 RLU and 2.7e+07 RLU | Values (RLU) at 10 pg/mL [5]: 2.72e+07 RLU and 2.68e+07 RLU | Values (RLU) at 25 pg/mL [5]: 2.66e+07 RLU | Values (RLU) at 50 pg/mL [5]: 2.64e+07 RLU and 2.53e+07 RLU | Values (RLU) at 100 pg/mL [5]: 2.69e+07 RLU and 2.62e+07 RLU | Values (RLU) at 250 pg/mL [5]: 2.37e+07 RLU and 2.34e+07 RLU | Values (RLU) at 500 pg/mL [5]: 2.03e+07 RLU and 1.91e+07 RLU | Values (RLU) at 1000 pg/mL [5]: 1.75e+07 RLU and 1.66e+07 RLU | Values (RLU) at 2000 pg/mL [5]: 1.19e+07 RLU and 1.14e+07 RLU | % B/B0 at 15.625 pg/mL [6]: 122% | % B/B0 at 31.25 pg/mL [6]: 69% | % B/B0 at 62.5 pg/mL [6]: 38% | % B/B0 at 125 pg/mL [6]: 43% | % B/B0 at 250 pg/mL [6]: 19% | Average Mean RFU of bound tracer at 15.625 pg/mL [6]: 10900 RFU | Average Mean RFU of bound tracer at 31.25 pg/mL [6]: 6170 RFU | Average Mean RFU of bound tracer at 62.5 pg/mL [6]: 3350 RFU | Average Mean RFU of bound tracer at 125 pg/mL [6]: 3850 RFU | Average Mean RFU of bound tracer at 250 pg/mL [6]: 1690 RFU | Average Mean RFU of bound tracer at 500 pg/mL [6]: 285 RFU
Molecule: MVRIKPGSANKPSDD (modifications not checked) [preimplantation factor (PIF), full-length 15-amino acid peptide]

Kd [7]: 17.5 nM | Kd [8]: 10.7 nM | Kd [9]: 15 nM
B2: rabbit monoclonal anti-PIF antibody Clone #30 (antibody, V domains shown)
VH: RSLEESGGRLVTPGTPLTLTCTVSGIDLSTYSMSWVRQAPGEGLEWIATINTGGSAYYANWAKGRFTISKTSTTVTLKMTSLTTEDTATYFCARTISADNLWGHGTLVTVSS
VL: QVLTQTPSSVSAAVGSTVTISCQSSQSVYSDYLSWYQQKPGQPPKRLIYAAFTLASGVPSRFKGSGSEKQFTLTISDLECDDAATYYCAAIYSNDIWAFGGGTEVVVK
